Results on one substance are retold here after article PMC12748981.

The target in the assay is GST-NUPR1 (UniProt O60356). Nature of the assay: SPR. Particulars: VHH.
Chain of UniProt O60356 (O60356 whole entry): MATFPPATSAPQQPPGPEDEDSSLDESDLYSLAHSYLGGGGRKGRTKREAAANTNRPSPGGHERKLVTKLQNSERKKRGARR

One may read the Kd as the equilibrium constant for the complex coming apart. Low values mean a tighter complex, high ones a looser complex. For “sdAb#07.81-3xFlag-cOdc1-Tat-6xHis (from UniProt P00860)”, the Kd was found to be 307 nM.
